# Test results: publication PMC10202959
# Experiments:
# Test in all cases: ELISA; plates coated with 100 nM ECM protein in PBS (1 h, 37 °C), blocked with 1% BSA in PBS-T; PDGF-BB or IL-1Ra variants at increasing concentrations in PBS-T with 0.1% BSA, 1 h at room temperature; detected with biotinylated antibodies; one site specific binding model; n = 3
# human tenascin C (human) = human tenascin C (human) (UniProt P24821)
# [1] = molecular target: human plasma fibronectin (human)
# [2] = molecular target: human vitronectin (human) (UniProt P04004)
# human vitronectin (human), sequence (P04004 20-478): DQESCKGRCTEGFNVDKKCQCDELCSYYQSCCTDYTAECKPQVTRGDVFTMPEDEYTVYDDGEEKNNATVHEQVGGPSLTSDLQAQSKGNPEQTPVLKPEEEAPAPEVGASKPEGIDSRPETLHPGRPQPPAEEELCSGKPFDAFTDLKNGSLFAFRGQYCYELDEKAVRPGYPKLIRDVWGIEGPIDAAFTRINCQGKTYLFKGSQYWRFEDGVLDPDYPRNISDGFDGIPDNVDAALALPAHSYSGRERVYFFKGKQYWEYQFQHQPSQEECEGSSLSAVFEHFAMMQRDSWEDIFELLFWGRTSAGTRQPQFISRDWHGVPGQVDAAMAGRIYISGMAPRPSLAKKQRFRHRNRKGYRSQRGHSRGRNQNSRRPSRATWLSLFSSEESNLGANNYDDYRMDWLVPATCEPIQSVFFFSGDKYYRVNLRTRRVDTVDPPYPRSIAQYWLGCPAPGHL
# human tenascin C (human), sequence (P24821 23-2201): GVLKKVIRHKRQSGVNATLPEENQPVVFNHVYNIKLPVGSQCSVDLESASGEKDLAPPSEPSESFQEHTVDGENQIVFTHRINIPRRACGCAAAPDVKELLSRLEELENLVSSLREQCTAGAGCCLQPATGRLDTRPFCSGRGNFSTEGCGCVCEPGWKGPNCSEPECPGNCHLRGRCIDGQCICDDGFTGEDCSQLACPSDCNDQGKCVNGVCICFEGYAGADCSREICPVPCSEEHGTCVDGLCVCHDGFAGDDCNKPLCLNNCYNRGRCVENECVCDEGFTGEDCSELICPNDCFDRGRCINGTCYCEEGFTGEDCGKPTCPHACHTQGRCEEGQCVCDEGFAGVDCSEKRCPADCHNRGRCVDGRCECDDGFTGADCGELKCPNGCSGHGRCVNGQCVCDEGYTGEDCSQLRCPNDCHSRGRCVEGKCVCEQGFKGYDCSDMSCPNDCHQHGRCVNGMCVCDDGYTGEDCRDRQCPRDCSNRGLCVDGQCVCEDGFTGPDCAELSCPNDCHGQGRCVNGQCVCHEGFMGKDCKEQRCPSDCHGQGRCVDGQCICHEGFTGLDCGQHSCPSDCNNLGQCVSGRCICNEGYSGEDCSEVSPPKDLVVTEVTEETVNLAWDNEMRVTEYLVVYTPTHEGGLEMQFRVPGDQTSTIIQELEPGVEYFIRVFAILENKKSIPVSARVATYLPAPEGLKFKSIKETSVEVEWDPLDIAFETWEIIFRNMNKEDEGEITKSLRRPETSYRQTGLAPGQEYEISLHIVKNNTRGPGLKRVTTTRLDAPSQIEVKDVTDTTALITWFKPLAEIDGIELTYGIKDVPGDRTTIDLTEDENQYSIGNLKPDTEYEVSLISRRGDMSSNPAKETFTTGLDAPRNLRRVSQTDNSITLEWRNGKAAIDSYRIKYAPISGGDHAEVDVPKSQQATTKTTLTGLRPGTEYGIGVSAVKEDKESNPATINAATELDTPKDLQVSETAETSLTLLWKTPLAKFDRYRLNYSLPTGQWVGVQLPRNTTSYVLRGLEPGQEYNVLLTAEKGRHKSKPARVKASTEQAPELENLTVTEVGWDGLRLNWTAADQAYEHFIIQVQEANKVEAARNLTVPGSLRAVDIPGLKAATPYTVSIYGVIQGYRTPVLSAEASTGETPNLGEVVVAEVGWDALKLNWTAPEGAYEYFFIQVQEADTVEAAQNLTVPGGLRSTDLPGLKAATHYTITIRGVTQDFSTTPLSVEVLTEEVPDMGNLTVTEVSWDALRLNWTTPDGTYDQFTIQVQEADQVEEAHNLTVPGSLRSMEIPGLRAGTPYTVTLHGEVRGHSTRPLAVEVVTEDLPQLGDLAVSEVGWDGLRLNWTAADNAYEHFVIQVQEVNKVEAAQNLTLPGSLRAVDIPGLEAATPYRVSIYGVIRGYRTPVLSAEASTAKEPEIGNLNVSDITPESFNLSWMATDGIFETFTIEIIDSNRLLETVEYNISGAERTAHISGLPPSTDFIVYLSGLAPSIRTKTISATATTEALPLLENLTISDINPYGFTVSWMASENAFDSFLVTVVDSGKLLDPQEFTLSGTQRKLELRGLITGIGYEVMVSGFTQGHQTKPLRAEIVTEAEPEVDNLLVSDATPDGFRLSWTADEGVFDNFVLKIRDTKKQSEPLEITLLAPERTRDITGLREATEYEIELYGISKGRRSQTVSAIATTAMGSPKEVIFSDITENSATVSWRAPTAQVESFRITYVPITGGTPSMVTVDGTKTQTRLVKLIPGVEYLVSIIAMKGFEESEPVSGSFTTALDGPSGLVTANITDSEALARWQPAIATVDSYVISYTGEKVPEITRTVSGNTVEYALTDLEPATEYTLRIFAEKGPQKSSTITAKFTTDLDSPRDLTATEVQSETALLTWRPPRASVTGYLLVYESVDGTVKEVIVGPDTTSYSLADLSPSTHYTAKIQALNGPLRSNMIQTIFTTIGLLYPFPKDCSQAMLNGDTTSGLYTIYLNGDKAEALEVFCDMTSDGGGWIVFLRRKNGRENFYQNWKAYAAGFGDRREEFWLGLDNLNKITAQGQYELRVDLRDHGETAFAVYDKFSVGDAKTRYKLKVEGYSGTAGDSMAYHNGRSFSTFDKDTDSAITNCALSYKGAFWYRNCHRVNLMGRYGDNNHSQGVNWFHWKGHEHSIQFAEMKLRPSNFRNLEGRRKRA
Kd (human tenascin C (human)) [nM],Kd [1] [nM],Kd [2] [nM],Substance
18.6,16.5,1.9,AREG26-38/IL-1Ra
19.3,5.9,1.3,AREG26-38/PDGF-BB
